{"source": "paper PMC12615485", "about": "“New dengue virus inhibitors targeting NS3-NS5 interaction identified by in silico screening” (Frontiers in Microbiology, 2025)", "key": {"[1]": {"biological_target": "6His-NS5 RdRp(270-900) of DENV-2 NGC strain (DENV-2 NGC strain)", "assay": "ELISA"}, "[2]": {"biological_target": "NHS-NS5(270-900): 6His-NS5 RdRp(270-900) labelled with RED-NHS (DENV-2 NGC strain)", "assay": "MST"}}}
{"substance": "NS3(566-585) peptide of DENV-2", "values": [{"measurement": "IC50", "setting": "[1]", "value": 127, "unit": "µM"}]}
{"substance": "6His-NS3(177-618), helicase portion of NS3 (domain or fragment)", "values": [{"measurement": "Kd", "setting": "[2]", "value": 7.2, "unit": "µM"}]}
